Results reported in doi:10.1101/2021.03.22.436490.

Key:
[1] = biological target: Vibrio cholerae Chromosome 2 ParA (ParA2vc) (Vibrio cholerae); experiment: crystal structure
[2] = biological target: Vibrio cholerae Chromosome 2 ParA (ParA2vc) (Vibrio cholerae); experiment: crystal structure; remark: listed apart in the source
[3] = biological target: Vibrio cholerae Chromosome 2 ParA (ParA2vc) (Vibrio cholerae); experiment: negative-stain EM

Measured: stoichiometry N

Vibrio cholerae Chromosome 2 ParA (ParA2vc) (natural protein)
2: [1] | [2] | [3]
